# Assay results reported in the DeepSol protein solubility set.
# Assay: soluble on expression in E. coli; label from the status in PepcDB or PDB records
row,Sequence,soluble on expression in E. coli
1,MSLKDKILTIDVGTGSTRAAIVRIDGAMIGFAQREYEQTTPRAGWSEQAPSLWWQAACDCIREVLYRYPETAAQIAVIGACGQMHGTVLLDDRGELVEDRALLWNDKRSQPQVDAFNAREGWEKWLAHLNNPPAAAWPAFKLAWWRENHPDRWSQLAKVLMPKDYINFMLTGAMATDYSEASCYFLMDSETRSWSSQACETFGLRVDQLPELKLSSDIIGQVTQPAADLTGLPAGIPVVAGTSDMAASLLGSGVYEPGMASDSTGTSTLMTVVSPRPLHHPLVNNLHLANAAWGGFTILDAGGDAVRWARLALADNQITHPQLLQEAAAVPAGAEGLLFLPYLTGERLAEHTNSRAQFFGLQRKHRRGHLFRAVLEGVAFASWRNLRQLQKCGQYPQQMIASGGGARSSLWLEIKASAYNLPILSTRNQENGVTGCGIIAGVGVGLYADFASGVRQTVQFEKLISPDPLLRDYYHACCELFDTLYRQSAALYDRLDALSEGHHHHHH,soluble
2,MSLKELEEIRKEIDEVDKIITELFEKRMNLVMEVAEYKEKNSIPVSDSKREKKVIDKNIGYLKNKEYSEVLKEFYINFMNLSKKLERKRIYNEEKTSVNTSIYGLIGEKLGHSHSSYIHKLIFEKVGIKGIYNLFEVPKEKLKESVDTFKIIKCGGLNVTIPYKVEVMKELYEISEKARKIGAVNTLKFSREGISGFNTDYIGFGKMLSKFRVEIKNNICVVLGSGGAARAVLQYLKDNFAKDIYVVTRNPEKTSEIYGEFKVISYDELSNLKGDVIINCTPKGMYPKEGESPVDKEVVAKFSSAVDLIYNPVETLFLKYARESGVKAVNGLYMLVSQAAASEEIWNDISIDEIIVDEIFEVLEEKIKSEGHHHHHH,soluble
3,MSLKFAVLVFPGSNCDRDMYNAAIKSGVDAAYVDYRETTLDGFDGVLIPGGFSFGDYLRSGAMASVAPIIKEVKRFAKEGKPVLGVCNGFQILTEIGLLPGALLHNDSHLFISRNETLKITNNQTPFTHLYVKNENVVYPVAHGEGHYYCTDEIYRELNDNNQIILKYTNNPNGSYEDIAGIVNKEGNVCGMMPHPERALETLLGTNSGVKLFESMVKSWREQNEGHHHHHH,soluble
4,MSLKFVTIRDIAREAGVSINTVSRALNDKPDINVETKKKVLEVADRLGYIRDATAVSLRYGLTRVIGVILEDSSNPFYSEVLKGIEMAAKKKKFNVIFMNTERSYELENEAIKTMIGRRVDGMIISPTQEKCDDIKLLSEKGIPFVVLGVHFDELNVPEIYTDDEKGGYLATKHLIEIGRRRILFLNGFTYKSVAKMRLNGYRKALKEFGLEYDKSLVHEIEEGYENAYNKVKELLKKGIKFDSIFCFNDVFAIGAIGALKEEGIKVPQDIAVVGYDDIYFSKFISPSLTTVKIDKILEGKLAFEMLHGILTKKTGKNVKNVLDVELIVRESTIDKIGEGHHHHHH,soluble
5,MSLKGDYFFMDRRPLILVAEENLHNLELLNSHMKTLNYDCICAKQGVRAIILAQTQKPDLIILDMILSDLSGSQVINHLKQDSKTANIPIIAVIPFILVQNQDHLFLTGADDYITKPYNFIQLNTLITHYVNRRHSSSLLSEGHHHHHH,soluble
6,MSLKHYQRINELEEKKIKLRERPVIDELSKVKKLKLTGQTEALFESWRSSWDEIETRLFPDLEEVLLEAEMNTDRYKFRSATHAENDIEQMLVVIEKQMDQILGGLKELLISEEKNAKESRATKEKFAELRREVLTRGFKLGETLPYIETKLSELSESLNSYDSLTDQGDHLEAREIVIVVQKEMQVIEAQMERIPSLLHETDTILPEEMTKLRAGYEEMVRKGYYLAQMELDKEISRMKNQIDKMKKNVINLDLDEAEQGVEELHNEIDLFYDTLEHEAEARHFVKENHSPTSDKLQRQNAVSDALAEQITEVKQTYHVAEDDLAVYLKTSAKLSEAKENFEQLTALIASGEIAYSAAQDTLKEIDAALITISAEQDKFAEELRSLRKDELEARDDAERMRRAIITLDRKMERERLPGLPEEYLSLREHMGESINALEKRLEEKPLNMKAVSQDWRIAEEDLTHLTEKAEEMMENVRLVEHVIQYANRYRLRNKELADELVQAENHFYNDYQYKKALEIAVTALEKVETGAFKKVEKAYESKVSVDEGHHHHHH,soluble
7,MSLKICVIGSSGHFRYALEGLDEECSITGIAPGVPEEDLSKLEKAISEMNIKPKKYNNWWEMLEKEKPDILVINTVFSLNGKILLEALERKIHAFVEKPIATTFEDLEKIRSVYQKVRNEVFFTAMFGIRYRPHFLTAKKLVSEGAVGEIRLVNTQKSYKLGQRPDFYKKRETYGGTIPWVGIHAIDWIHWITGKKFLSVYATHSRLHNSGHGELETTALCHFTLENEVFASLSIDYLRPQGAPTHDDDRMRIVGTRGIVEVINERVFLTDEKGHREVPLVEKGQIFEDFLREIRGQGKCMVTPEDSILTTEIALKARLSADTGQIVLIEGHHHHHH,soluble
8,MSLKILDISTEVKEIALKTPFITALRRVDAVEFVRVKVVCDDGSVAYGEAPATRAVTGEDIYSILSDIAFIQEELIGLTPKDAIVSLHLAEMGSSAKAALDMALFYLLPQTKEKQNLTLQTDITISLKDSDEMISDATQAIASGMNILKVKFGGDIKHAIEVTNRLSELDAKLIIDANQAWTQDDTMEYLEATLNVKLELIEQPVKADELHELRCITNYSHVPILADESVFTLEDAKAIIEYACADMINIKLMKCGGVTKAIEILEFARKNDIKCMLGSMLEGPISINAALNLAMEYSDVIAYIDLDSPLLYKEPSNELEFDFNGCEITRKEGHHHHHH,soluble
9,MSLKINNLVDLHCHILPAIDDGSPSLEASLELARQAVADGIRYILATPHHMDRHYLNHAGDVVAAVEAFQAELDVNDIPLTIFPGQEVHLNGQLMEKVDDLLSIDTGRHYLLLELPHEMVPSYLDEMIFQLSCEGITPVIAHPERNAQIIAEPQRLYKLAEDGVLAQVTATSLVGTFGEQVQRTAKEFVKCGLVQVVASDAHTLKNRGFAMTKAYQVLNEMDSKYPERFATNARDLLNGEQIEMGQIEIPRKQRKHWLFEGHHHHHH,soluble
10,MSLKIRQARLEDLDRIVELEFENFSVEEAIPPSVFEAHLREIQTSFLVAEKEGRIMGYIEGPVGLHRHLQDQSFTEEIKDYSHEPGGYISVTCLSIAKEAQGLGLGQKLLTALKEVALEDERDGINLTCHDYLIAYYEKHGFVNEGQSQSTFAGETWYDMVWEMKKEGHHHHHH,soluble
11,MSLKITAVEPFILHLPLTSESISDSTHSITHWGVVGAKITTSDGIEGYGFTGTHAHLPSDRLITSCISDCYAPLLLGEDASDHSRLWTKLARYPSLQWVGRAGITHLALAAVDVALWDIKAKKAGVPLWHYLGGARTAGVEAYNTDIGWLSFTLEDLLAGSARAVEEDGFTRLKIKVGHDDPNIDIARLTAVRERVDSAVRIAIDGNGKWDLPTCQRFCAAAKDLDIYWFEEPLWYDDVTSHARLARNTSIPIALGEQLYTVDAFRSFIDAGAVAYVQPDVTRLGGITEYIQVADLALAHRLPVVPHAGEMSQVHVHLSYWHPASTILEYIPWIKDHFEEPIHVRDGVYKRPEQPGASTTPLAESFTRYGKAVKEGHHHHHH,soluble
12,MSLKITRITVYQIALPLEHPYWLSGGRLKFEVLDATLVKIETGTGLTGWGEGTPWGHTYVPAHGPGIRAGIETMAPFIIGLDPRRGLEIERAMDLALPGHLYAKSPIDMACWDIAGQAAGLSIADLMGGGSRTPRPIASSVGAKTVEETRAVIERYRQRGYVAHSVKIGGDIERDIARVRDVESLRRDGEIVLYDVNRGWTRQQALRVMSATEDLNVMFEQPCESLDDIAAIAGKYAAPVSVDESLVTLQDAARIARDGLAEVFGIKLNRVGGLTKAARMRDIALAHGIDMFVMATGGSVLADAEALHLAATIPDANCHAVWACQDMITLDIAGGRGPRNIDGHLHLTEAPGLGVHPDEDVLGDPVGVYGEGHHHHHH,not soluble
13,MSLKKFSCGFEVTKEVIGGKWKGLVLYFLMNGPKRTSELKRIIPNITQKMLIQTLRELEASGLVSRKMYNQVPPKVEYSSTELGESLKPILQELCQWGGYYAEQEYAEGEYEIVQPEQLSEGGSHHHHHH,soluble
14,MSLKKGYELLIFDWDGTLADSIGRIVEAMNVAAERAGEAQSSDAAVKGIIGLALDEAIHTLYPHLAPAEVASFRQHYADVYVALDQQPSPLFDGVVESLDAFRAEGYRLAVATGKARRGLDRVLKANGWERFFDITRAADETRGKPHPLMLEEILGHCGVEPSRALMVGDSAFDLQMASNAGMHSVAVGYGAMSLQALAEFGPQVCIDHFSQLREWLGGSAIPLPREGHHHHHH,soluble
15,MSLKKIMEYLQHYINQYPHRLALVFEDRHLTYGELSKEIYQASMRYKEVKLNEKVGLMDDHPVNNIINYFAVHQRGGIPCIFNHQWSNERIHQLVKSYDIQWLIKDNHLTLNHDDSIYNDEVIPRNVIHIGFTSGTTGLPKAFYRNEHSWIVSFKENEKLLQHCEETIVAPGPLSHSLSLYACIYALSTGKTFIGQKNFNPLSLMRLINQLNKATAIFVVPTMVQQLISTQRHCSSIKSILSSGAKLTLQQFQQISTLYPQANLIEFFGTSEASFISYNFNQSSPAHSVGKLFPHVETRLLNQDDDAVGLLAVRSEMVFSGYVGQSNQEGSWIKTGDFAYIKNQHLFLVGRESDRIIVGGINVYPTAIESLIMDIEGIDEALVIGIPHAKFGEIAILLYSGKVQLNYRQIKSFLMKQLSRQEVPSKLKKIDHMIYTESGKIARKEMKNKFINGEGHHHHHH,not soluble
16,MSLKKKIAVVTGATGGMGIEIVKDLSRDHIVYALGRNPEHLAALAEIEGVEPIESDIVKEVLEEGGVDKLKNLDHVDTLVHAAAVARDTTIEAGSVAEWHAHLDLNVIVPAELSRQLLPALRAASGCVIYINSGAGNGPHPGNTIYAASKHALRGLADAFRKEEANNGIRVSTVSPGPTNTPMLQGLMDSQGTNFRPEIYIEPKEIANAIRFVIDAGETTQITNVDVRPRIELADRKEGHHHHHH,soluble
17,MSLKKNFALEKKKELQEMTNSAVRRVLDFKKDPNKVIELLNFMARSPQYSFKNQMMVSSQYENSNFTMGSRQFKETMGLKVNENATPIKIVAPVMNTFFKRNDKLVQLRFANKEEKEKIKNKEIKTIQNVWYYKLVDVYDITQTNAKPEDFPEYYPDRRYNFYVKNTEVIDDIISANKKLLKDNNIHLIENHTYNQLGTSVGFAGKNLTGDKIVGYRDGLNKTEILHTLLHETTHAFYHQKENPEKTTELKEFEAEMTAYIVAKRFGVDTSEHTIKYVSDWTESMSKIEDIEQSIKTVSMYSSRIINDIEKQIDPVKIKEGHHHHHH,not soluble
18,MSLKKSLTELISDLKGNENVVNWHEIEPREAKTRPMPESIDERIKAALSKRGIDELYTHQYSAFQYVQKGESIVTVTPTASGKTLCYNLPVLQSIAQDETNRALYLFPTKALAQDQKSELNEIIDEMGIDIKSFTYDGDTSPAIRQKVRKAGHIVITNPDMLHSAILPHHTKWVSLFENLKYIVIDELHTYRGVFGSHVANVIRRLKRICRFYGSDPVFICTSATIANPKELGEQLTGKPMRLVDDNGAPSGRKHFVFYNPPIVNKPLNIRRSATAEVNELAKEFLKNKVQTIVFARSRVRVEIILSHIQELVKKEIGTKSIRGYRGGYLPKERREIERGLREGDILGVVSTNALELGVDIGQLQVCVMTGYPGSVASAWQQAGRAGRRHGESLIIMVANSTPIDQYIVRHPEYFFNRSPESARINPENLIILVDHLKCAAYELPFRADEEFGAMEVSDILEYLQEEAVLHRNGERYHWASESFPASNISLRSASQENVVIVDQSDIANVRIIGEMDRFSAMTLLHDEAIYLHEGVQYQVEKLDWDHKKAYVRKVDVEYYTDANLAVQLKVLEIDKTKEKSRTSLHYGDVTVNALPTIFKKIKMTTFENIGSGPIHLPEEELHTSAAWLEIKTADEDIGEKTLEQLLLGISNVLQHIVPVYIMCDRNDVHVVSQIKAAHTGLPTIFLYDHYPGGIGLAEEVFKRFSDINEAAKQLITHCPCHDGCPSCIGTEIEGIKAKERILQLLDQMSEGHHHHHH,soluble
